In the supplement of paper PMC9732359:
± gives the uncertainty stated by the source.

Test: protein stability index of a GFP-peptide fusion (yeast GPS) (PSI 1-4); higher = more stable; sorted into four equal gates, so the index is relative within each strain
How it was run: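 Each library plasmid carries Cherry plus GFP with a tiled 17-residue yeast protein peptide fused downstream, and the pooled library was carried in yeast. Mid-log cultures in leucine-free medium were sorted into four equal gates by GFP/Cherry ratio. Reads from Illumina sequencing of PCR-amplified plasmids from each gate were assigned to strains by barcodes. Per peptide, the protein stability index was computed as the summed products of gate read frequency and gate number.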

Work on GRLSLRSLTAYAPNLML [QCR10] yielded a protein stability index (doa10∆) of 1.26 ± 0.041, a protein stability index (pdr5∆) of 1.9 ± 0.051 and a protein stability index (san1∆) of 1.63 ± 0.081. For the same sequence, the protein stability index (ubr1∆) was 1.42 ± 0.06.
PESIRQKKARTILQHLS [PRP8] showed a protein stability index (doa10∆) of 1.21 ± 0.099, a protein stability index (pdr5∆) of 1.53 ± 0.093 and a protein stability index (san1∆) of 1.12 ± 0.21. The protein stability index (ubr1∆) was 1.21 ± 0.24.
GTGLFGQQTAQPQQSTI [YGR119C/NUP57] showed a protein stability index (doa10∆) of 2.76 ± 0.063, a protein stability index (pdr5∆) of 3.13 ± 0.046 and a protein stability index (san1∆) of 2.85 ± 0.051. The protein stability index (ubr1∆) was 3.19 ± 0.058.
Sequence DNEVQRTMLELITQLDG [RPT1] has a protein stability index (doa10∆) of 2.55 ± 0.12, a protein stability index (pdr5∆) of 3.21 ± 0.12 and a protein stability index (san1∆) of 2.79 ± 0.14. It also gave a protein stability index (ubr1∆) of 2.67 ± 0.15.
Sequence LHRLTPKNVKGEEDADE [RPN1] has a protein stability index (doa10∆) of 3.65 ± 0.26.
In the case of ELKIRSKTENVRRLEAQ [RPT6], the protein stability index (doa10∆) is reported as 2.5 ± 0.16, the protein stability index (pdr5∆) is reported as 2.53 ± 0.12 and the protein stability index (san1∆) is reported as 1.58 ± 0.27. For the same sequence, the protein stability index (ubr1∆) was 2.53 ± 0.095.
For SLKCTDPYELKGEVVLV [ITC1], the protein stability index (doa10∆) was 2.59 ± 0.2, the protein stability index (pdr5∆) was 3.1 ± 0.24 and the protein stability index (san1∆) was 2.44 ± 0.2. For the same sequence, the protein stability index (ubr1∆) was 2.96 ± 0.13.
In the case of LTKAQKYLEQVLDHQRA [RPL17A], the protein stability index (doa10∆) is reported as 2.69 ± 0.056, the protein stability index (pdr5∆) is reported as 2.73 ± 0.063 and the protein stability index (san1∆) is reported as 2.47 ± 0.062. It also gave a protein stability index (ubr1∆) of 2.51 ± 0.039.
With FGFSSSGTAATGAASNQ [YOR098C/NUP1] the protein stability index (doa10∆) was 2.69 ± 0.11, the protein stability index (pdr5∆) was 3.41 ± 0.13 and the protein stability index (ubr1∆) was 3.31 ± 0.07.
In the case of EQLSPQDVLQMLGRAGR [BRR2], the protein stability index (doa10∆) is reported as 3.14 ± 0.27, the protein stability index (pdr5∆) is reported as 3.17 ± 0.18 and the protein stability index (san1∆) is reported as 3.48 ± 0.15. For the same sequence, the protein stability index (ubr1∆) was 3.36 ± 0.12.
Sequence HAKFSPVSTASYRLLPQ [RPC40] has a protein stability index (doa10∆) of 1.71 ± 0.076, a protein stability index (pdr5∆) of 1.75 ± 0.055 and a protein stability index (san1∆) of 1.84 ± 0.089. It also gave a protein stability index (ubr1∆) of 2.23 ± 0.077.
Work on ETISAIEHPMTSAIEVL [RPN1] yielded a protein stability index (doa10∆) of 1.49 ± 0.048, a protein stability index (pdr5∆) of 1.72 ± 0.042 and a protein stability index (san1∆) of 1.76 ± 0.071. The protein stability index (ubr1∆) was 1.8 ± 0.044.
For ITNKHQEGLAKFGACVA [RPN2], the protein stability index (doa10∆) was 1.78 ± 0.054, the protein stability index (pdr5∆) was 1.97 ± 0.038 and the protein stability index (san1∆) was 2.54 ± 0.092. For the same sequence, the protein stability index (ubr1∆) was 2.51 ± 0.035.
In the case of ARWPAKSVKFVQGLLQN [RPL17A], the protein stability index (doa10∆) is reported as 2.35 ± 0.097, the protein stability index (pdr5∆) is reported as 2.17 ± 0.083 and the protein stability index (san1∆) is reported as 1.89 ± 0.088. The protein stability index (ubr1∆) was 2.13 ± 0.073.
Sequence RFWSFMKTQRFVSNMGF [SIR4] has a protein stability index (doa10∆) of 1.55 ± 0.21, a protein stability index (pdr5∆) of 1.4 ± 0.11 and a protein stability index (san1∆) of 1.82 ± 0.13. The protein stability index (ubr1∆) was 1.68 ± 0.048.
With SHSLALNEITNSKVNKL [DSN1] the protein stability index (doa10∆) was 2.33 ± 0.04, the protein stability index (pdr5∆) was 2.57 ± 0.04 and the protein stability index (san1∆) was 2.48 ± 0.035. It also gave a protein stability index (ubr1∆) of 2.54 ± 0.033.
Sequence ISNLTQEQVQDYVNKTN [FAS1] has a protein stability index (doa10∆) of 2.34 ± 0.047, a protein stability index (pdr5∆) of 2.81 ± 0.043 and a protein stability index (san1∆) of 2.82 ± 0.057. The protein stability index (ubr1∆) was 2.27 ± 0.033.
With RDGVLTVTLNKNREVVQ [RRP45] the protein stability index (doa10∆) was 2.71 ± 0.11, the protein stability index (pdr5∆) was 2.93 ± 0.11 and the protein stability index (san1∆) was 2.81 ± 0.08. The protein stability index (ubr1∆) was 2.73 ± 0.088.
With ESLKKSPIFEVLSDDAK [ARP9] the protein stability index (doa10∆) was 3.01 ± 0.072, the protein stability index (pdr5∆) was 3.15 ± 0.079 and the protein stability index (san1∆) was 3.06 ± 0.073. The protein stability index (ubr1∆) was 3.32 ± 0.058.
AVRLILPGELAKHAVSE [HTB1] showed a protein stability index (doa10∆) of 3.23 ± 0.095, a protein stability index (pdr5∆) of 2.98 ± 0.064 and a protein stability index (san1∆) of 1.52 ± 0.17. For the same sequence, the protein stability index (ubr1∆) was 3.28 ± 0.064.
With FPVDPTTPVKLGPGIYC [RRP40] the protein stability index (doa10∆) was 2.41 ± 0.058, the protein stability index (pdr5∆) was 2.48 ± 0.056 and the protein stability index (san1∆) was 2.4 ± 0.052. It also gave a protein stability index (ubr1∆) of 2.2 ± 0.047.
With KQYDNRITKSNEKSQAE [LRP1] the protein stability index (doa10∆) was 2.91 ± 0.087, the protein stability index (pdr5∆) was 2.91 ± 0.11 and the protein stability index (san1∆) was 2.77 ± 0.075. For the same sequence, the protein stability index (ubr1∆) was 3.02 ± 0.037.
With SALELVGQLNKVVDQLF [RPN6] the protein stability index (doa10∆) was 2.84 ± 0.045, the protein stability index (pdr5∆) was 2.98 ± 0.065 and the protein stability index (san1∆) was 2.82 ± 0.059. It also gave a protein stability index (ubr1∆) of 2.68 ± 0.042.
Work on KNDNIKKSVNKLDKQIN [POP6] yielded a protein stability index (doa10∆) of 2.78 ± 0.049, a protein stability index (pdr5∆) of 2.87 ± 0.059 and a protein stability index (san1∆) of 2.73 ± 0.059. For the same sequence, the protein stability index (ubr1∆) was 2.78 ± 0.046.
RIFKITEKLSPLASEES [YGL100W/SEH1] showed a protein stability index (doa10∆) of 2.82 ± 0.056, a protein stability index (pdr5∆) of 2.5 ± 0.055 and a protein stability index (san1∆) of 2.41 ± 0.066. It also gave a protein stability index (ubr1∆) of 2.57 ± 0.032.
VVNQPTGKIVDVVGTLS [FAS1] gave a protein stability index (doa10∆) of 3.1 ± 0.12, a protein stability index (pdr5∆) of 3.49 ± 0.12 and a protein stability index (san1∆) of 3.49 ± 0.092. For the same sequence, the protein stability index (ubr1∆) was 3.11 ± 0.061.
Sequence AIKELNYNRIAKICALL [NUT1] has a protein stability index (doa10∆) of 2.41 ± 0.059, a protein stability index (pdr5∆) of 2.44 ± 0.065 and a protein stability index (san1∆) of 2.37 ± 0.08. For the same sequence, the protein stability index (ubr1∆) was 2.32 ± 0.043.
